Positions count from the first letter of the chain named. Names and notes keep the numbering of the source.
B1: SlHPPDm-F372V (protein)
chain: MGKQAAAAADDQQLPGDIEDKFKLVGFNHFVRTNPRSDFFTVKRFHHIEFWCGDATNTARRFSWGLGLPIAAISDLSTGNSVHASYLLRSSSSSQLQFLFTAPYSSAISTSSSASIPTFSVSSHRSFTATHGLGVRAIALEVENSRLAFSTCVAHGAKPVSEPVILNDEVVIAEVHLYGDVVLRFVSFLKDSNCFVFLPGFESVEGAQLDYGIRRLDHAVGNVPELGPVVEYIKSFTGFHEFAEFTAEDVGTAESGLNSVVLANNDETVLFPLNEPVYGTKRKSQIQTYLEHNEGAGVQHLALVTEDIFRTLREMRKRSGIGGFEFMPSPPPTYYKNLKTRAGDILSDEQIQECEELGILVDRDDQGTLLQIVTKPVGDRPTIFLEIIQRIGCMLKNEEGELYQKGGCGGFGKGNFSELFKSIEEYEKTLEAKQNTQVAIA
modifications: SlHPPDm-F372V Amino Acid Sequence
B2: AhHPPDm-F372V: Arachis hypogaea HPPD mutant F372V, SEQ ID NO: 385 (protein)
chain: MATAYTYAHAVTYCNSQHNPPIIPILSTNQHPPRVTLPSSIPHFISTITTFNLKHFPSHSLHTVMVTQTQQNAPSSSPELGFKLVGFKNFVRTNPKSDRFKVIRFHHVEFWCTDATNTASRFSWGLGMPIVAKSDLSTGNAVHASYLLRSGDLNFLFSAPYSASIAGDGASASFPSFSASDCHSFAAKHGLAVRAVAIEVEDASAAFSASVANGAKPVSPAVLLDNSVGFAEVHLYGDVVLRYISYSAPTRESNLNPTLRFLPGFEAVEADSSFPELDYGIRRLDHAVGNVPELAPAVNYLKKFTGFHEFAEFTAEDVGTSESGLNSVVLASNDEMVLLPLNEPVYGTKRKSQIETYLEHNEGAGLQHLALVSEDIFRTLREMRKRSTIGGFQFMPSPPPTYYRNLKKRAGDVLSDEQIKECEELGILVDRDDQGTLLQIVTKPVGDRPTIFIEIIQRIGCMLKDEEGKVYQKGGCGGFGKGNFSELFKSIEEYEKTLESRRTA
modifications: AhHPPDm-F372V Amino Acid Sequence
B3: CyHPPDm-F372V: Cyanobacteria HPPD mutant F372V, SEQ ID NO: 387 (protein)
chain: MEFDYLHLYVDDYQSAHRCYQRQWGFTCVNKIITDQGITGIYQQGQILLLISASESSLSRYADYLQKHPPGVGEVAWQVANWQKIQHQLSELQIETTPVIHPLTKAEGLTFLLWGDVHHSIYPVRSELNQNKTLHGVGLTTIDHVVLNIAADQFTQASQWYQQVFGWSVQQSFTVNTPHSGLYSEALASANGKVQFNLNCPTNNSSQIQTFLANNHGAGIQHVAFSTTSITRTVAHLRERGVNFLKIPTGYYQQQRNSSYFNYASLDWDTLQCLEILLDDQDNTGERLLLQIVSQPCYGVGTLFWEIIERRHRAKGFGQGNFQALYEAVETLEKQLEVP
modifications: CyHPPDm-F372V Amino Acid Sequence
B4: N1HPPDm-F372V: Sphingobium sp. N1 HPPD mutant F372V, SEQ ID NO: 389 (protein)
chain: MAADSENPLGLHGFAFAEFTSPDPAAMARQFEQLGFVPAARRKDRGLTLYRQGRIAFILNAGEGEQASAFRAAHGPSANGMAFNVADAKAAHRHAIQSGATDADTAQSALPGTYAIEGIGDSLLYLVDSDPFADWDEVPGWREASAERGVGLDLLDHLTHNVRRGQMRVWSEFYATLFGFEEQKFFDIKGQATGLFSQAMIAPDHEIRIPLNESQDDNSQIEEFIREYNGEGIQHLALTTPDIYSTVEKLRANGVRLQDTIDTYYDLVDERVPGHGEDLARLRKNRILIDGDVHDEGLLLQIVTETMFGPIFFEIIQRKGNEGFGNGNFQVLYESIELDQIRRGVVTVDA
modifications: N1HPPDm-F372V Amino Acid Sequence
B5: N2HPPDm-F372V: Sphingobium sp. N2 HPPD mutant F372V, SEQ ID NO: 391 (protein)
chain: MTLFDNPLGLDGFEFVEFSAPAKGMLEPVFAAMGFVMIARHRSKDVQLWRQGGINLIANYEPRSPAAYFAAEHGPSACGMGWRVRNAAKAYELAVERGAEPVDVKTGPMELRLPAIRGIGGSIIYLIDRYEDEDGGLSIYDIDFVYEPGVDRHPEGAGFKIIDHLTHNVYGGRMAHWASFYERVFGFREIRYFDIKGEYTGLTSKAMTAPDGKIRIPLNEEGKAGGGQIEEFLRAYNGEGIQHIAFLCDDLIAAWDKLKALGTPLMTAPPATYYEMLDERLPGHGEPVAELQKRGILLDGSTQQGDPRLLLQIVGQATIGPVFFEFIQRKKDEGFGEGNFTALFESMERDQLRRGTLNAGESA
modifications: N2HPPDm-F372V Amino Acid Sequence
B6: ZmHPPDm-F372V: Zea mays HPPD mutant F372V, SEQ ID NO: 347 (protein)
chain: MPPTPTAAAAGAAVAAASAAEQAAFRLVGHRNFVRFNPRSDRFHTLAFHHVELWCADAASAAGRFSFGLGAPLAARSDLSTGNSAHASLLLRSGSLSFLFTAPYAHGADAATAALPSFSAAAARRFAADHGLAVRAVALRVADAEEAFRTSVAAGARPAFGPVDLGRGFRLAEVELYGDVVLRYVSYPDGAAGEPFLPGFEGVASPGAADYGLSRFDHIVGNVPELAPAAAYFAGFTGFHEFAEFTTEDVGTAESGLNSMVLANNSENVLLPLNEPVHGTKRRSQIQTFLDHHGGPGVQHMALASDDVLRTLREMQARSAMGGFEFMAPPTSDYYDGVRRRAGDVLTEAQIKECQELGVLVDRDDQGVLLQIVPKPVGDRPTLFLEIIQRIGCMERDEKGQEYQKGGCGGFGKGNFSQLFKSIEDYEKSLEAMQAAAAATAQGS
modifications: ZmHPPDm-F372V Amino Acid Sequence
B7: N3HPPDm-F372V: Burkholderia sp. N3 HPPD mutant F372V, SEQ ID NO: 393 (protein)
chain: MQIPNWENPVGTDGFEFIEYTAPDPKALGQLFERMGFTAIARHRHKDVTVYRQGDINFIINAEPHSFAQRFARLHGPSICAIAFRVQDAAKAYQHALELGAWGFDNKTGPMELNIPAIKGIGDSLIYFVDRWRGKNGAQPGAIGDISIYDVDFEPIAGANPNPAGHGLTYIDHLTHNVHRGRMQEWAEFYERLFNFREVRYFDIEGKVTGVKSKAMTSPCGKIRIPINEEGSDTAGQIQEYLDAYHGEGIQHIALGTNDIYGAVDGLRGKEVKLLDTIDTYYELVDRRVPDHGESLDELKKRKILIDGARDDLLLQIVTENQIGPIFFEIIQRKGNQGFGEGNFKALFESIELDQIRRGVVQDKA
modifications: N3HPPDm-F372V Amino Acid Sequence
B8: N4HPPDm-F372V: Burkholderia sp. N4 HPPD mutant F372V, SEQ ID NO: 395 (protein)
chain: B7 chain with H65D, N160T, N258S, N343T
modifications: N4HPPDm-F372V Amino Acid Sequence

tested on: Arabidopsis thaliana T1 plants; assay: Topramezone tolerance of transgenic Arabidopsis thaliana T1 plants (pesticide damage grade by bleached leaf area, score, resistance evaluation); format: in vivo; details: topramezone 25 g ai/ha (1x); HPPD F372V mutants, Table 7
Method in brief: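 Eighteen days after sowing, wild-type and HPPD-transgenic T1 Arabidopsis receive a topramezone spray at 1×, 2× or 4× field rate (25–100 g ai/ha) or water. Seven days later each plant is graded by its proportion of bleached leaf area.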

Molecule | Resistance evaluation
B1 | Poorly resistant
B2 | Poorly resistant
B3 | Poorly resistant
B4 | Highly resistant
B5 | Highly resistant
B6 | Highly resistant
B7 | Highly resistant
B8 | Highly resistant

same assay, conditions: topramezone 100 g ai/ha (4x); HPPD F372V mutants, Table 7

Molecule | Resistance evaluation
B1 | Non-resistant
B2 | Non-resistant
B3 | Non-resistant
B4 | Highly resistant
B5 | Highly resistant
B6 | Poorly resistant
B7 | Highly resistant
B8 | Highly resistant

— patent US20230212587A1, “Mutant Hydroxyphenylpyruvate Dioxygenase Polypeptide, Encoding Gene Thereof and Use Therefor” (Beijing Dabeinong Biotechnology Co., Ltd., priority 2019, published 2023)
